This series relates to O=C(O)CCC(=O)C(=O)O. The experiment in a line: purified protein. The following applies: NADH.

Broadly, the Km is the substrate concentration at which the rate is half of its maximum.

GDH1 from bovine liver (glutamate dehydrogenase 1) (Bos taurus), sequence (chain, as listed by the source): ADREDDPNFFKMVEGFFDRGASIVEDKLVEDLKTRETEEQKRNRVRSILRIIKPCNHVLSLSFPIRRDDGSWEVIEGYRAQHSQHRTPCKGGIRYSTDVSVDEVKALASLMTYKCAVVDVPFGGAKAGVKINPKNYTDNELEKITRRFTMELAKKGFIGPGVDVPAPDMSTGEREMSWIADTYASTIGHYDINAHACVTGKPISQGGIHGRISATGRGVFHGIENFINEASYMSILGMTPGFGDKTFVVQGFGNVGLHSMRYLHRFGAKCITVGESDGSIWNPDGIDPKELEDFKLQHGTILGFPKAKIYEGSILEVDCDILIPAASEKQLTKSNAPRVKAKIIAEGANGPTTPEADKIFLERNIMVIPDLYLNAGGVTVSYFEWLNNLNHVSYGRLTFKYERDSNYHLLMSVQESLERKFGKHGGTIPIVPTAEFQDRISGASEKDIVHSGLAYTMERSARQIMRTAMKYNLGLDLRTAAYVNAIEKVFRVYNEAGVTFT

On to “GDH1 from bovine liver (glutamate dehydrogenase 1) (Bos taurus)”, for which the Km amounted to 840 ± 20 µM.

For the origin of these results see article PMC8615521, “Mitochondria-Mediated Apoptosis of HCC Cells Triggered by Knockdown of Glutamate Dehydrogenase 1: Perspective for Its Inhibition through Quercetin and Permethylated Anigopreissin A” (Biomedicines, 2021).
